B1: hBU12 Co-Conjugate (conjugate, chains of the INN, looked up)
VH: QVQLQESGPGLVKPSQTLSLTCTVSGGSISTSGMGVGWIRQHPGKGLEWIGHIWWDDDKRYNPALKSRVTISVDTSKNQFSLKLSSVTAADTAVYYCARMELWSYYFDYWGQGTLVTVSS
VL: EIVLTQSPATLSLSPGERATLSCSASSSVSYMHWYQQKPGQAPRLLIYDTSKLASGIPARFSGSGSGTDFTLTISSLEPEDVAVYYCFQGSVYPFTFGQGTKLEIK
modifications: co-conjugate with two drug payloads
B2: hBU12-Linking Assembly Unit Aa-Comp. Ab (8) Comp. Aa (8) (conjugate, chains of the INN, looked up)
VH: QVQLQESGPGLVKPSQTLSLTCTVSGGSISTSGMGVGWIRQHPGKGLEWIGHIWWDDDKRYNPALKSRVTISVDTSKNQFSLKLSSVTAADTAVYYCARMELWSYYFDYWGQGTLVTVSS
VL: EIVLTQSPATLSLSPGERATLSCSASSSVSYMHWYQQKPGQAPRLLIYDTSKLASGIPARFSGSGSGTDFTLTISSLEPEDVAVYYCFQGSVYPFTFGQGTKLEIK
modifications: linker assembly with compounds Ab and Aa
B3: hBU12-Linking Assembly Unit Aa-Comp. Ab (16) (conjugate, chains of the INN, looked up)
VH: QVQLQESGPGLVKPSQTLSLTCTVSGGSISTSGMGVGWIRQHPGKGLEWIGHIWWDDDKRYNPALKSRVTISVDTSKNQFSLKLSSVTAADTAVYYCARMELWSYYFDYWGQGTLVTVSS
VL: EIVLTQSPATLSLSPGERATLSCSASSSVSYMHWYQQKPGQAPRLLIYDTSKLASGIPARFSGSGSGTDFTLTISSLEPEDVAVYYCFQGSVYPFTFGQGTKLEIK
modifications: linker assembly with compound Ab
B4: hBU12-Linking Assembly Unit Aa-Comp. Aa (16) (conjugate, chains of the INN, looked up)
VH: QVQLQESGPGLVKPSQTLSLTCTVSGGSISTSGMGVGWIRQHPGKGLEWIGHIWWDDDKRYNPALKSRVTISVDTSKNQFSLKLSSVTAADTAVYYCARMELWSYYFDYWGQGTLVTVSS
VL: EIVLTQSPATLSLSPGERATLSCSASSSVSYMHWYQQKPGQAPRLLIYDTSKLASGIPARFSGSGSGTDFTLTISSLEPEDVAVYYCFQGSVYPFTFGQGTKLEIK
modifications: Linking Assembly Unit Aa-Compound Aa drug conjugate
B5: hBU12-Linking Assembly Unit Aa-Comp. Ah (8) (conjugate, chains of the INN, looked up)
VH: QVQLQESGPGLVKPSQTLSLTCTVSGGSISTSGMGVGWIRQHPGKGLEWIGHIWWDDDKRYNPALKSRVTISVDTSKNQFSLKLSSVTAADTAVYYCARMELWSYYFDYWGQGTLVTVSS
VL: EIVLTQSPATLSLSPGERATLSCSASSSVSYMHWYQQKPGQAPRLLIYDTSKLASGIPARFSGSGSGTDFTLTISSLEPEDVAVYYCFQGSVYPFTFGQGTKLEIK
modifications: linker assembly with compound Ah
B6: hBU12-Linking Assembly Unit Aa-Comp. Aa (8)-Comp. Ah (8) (conjugate, chains of the INN, looked up)
VH: QVQLQESGPGLVKPSQTLSLTCTVSGGSISTSGMGVGWIRQHPGKGLEWIGHIWWDDDKRYNPALKSRVTISVDTSKNQFSLKLSSVTAADTAVYYCARMELWSYYFDYWGQGTLVTVSS
VL: EIVLTQSPATLSLSPGERATLSCSASSSVSYMHWYQQKPGQAPRLLIYDTSKLASGIPARFSGSGSGTDFTLTISSLEPEDVAVYYCFQGSVYPFTFGQGTKLEIK
modifications: linker assembly with compounds Aa and Ah
B7: hBU12-Linking Assembly Unit Aa-Comp. Aa (8) (conjugate, chains of the INN, looked up)
VH: QVQLQESGPGLVKPSQTLSLTCTVSGGSISTSGMGVGWIRQHPGKGLEWIGHIWWDDDKRYNPALKSRVTISVDTSKNQFSLKLSSVTAADTAVYYCARMELWSYYFDYWGQGTLVTVSS
VL: EIVLTQSPATLSLSPGERATLSCSASSSVSYMHWYQQKPGQAPRLLIYDTSKLASGIPARFSGSGSGTDFTLTISSLEPEDVAVYYCFQGSVYPFTFGQGTKLEIK
modifications: linker assembly with compound Aa
B8: hBU12-Linking Assembly Unit Aa-Comp. Ab (8) (conjugate, chains of the INN, looked up)
VH: QVQLQESGPGLVKPSQTLSLTCTVSGGSISTSGMGVGWIRQHPGKGLEWIGHIWWDDDKRYNPALKSRVTISVDTSKNQFSLKLSSVTAADTAVYYCARMELWSYYFDYWGQGTLVTVSS
VL: EIVLTQSPATLSLSPGERATLSCSASSSVSYMHWYQQKPGQAPRLLIYDTSKLASGIPARFSGSGSGTDFTLTISSLEPEDVAVYYCFQGSVYPFTFGQGTKLEIK
modifications: linker assembly with compound Ab
B9: hLIV22-Linking Assembly Unit Aa (8)-MMAE (16) (conjugate, chains of the INN, looked up)
VH: QVQLVQSGAEVKKPGASVKVSCKASGLTIEDYYMHWVRQAPGQGLEWMGWIDPENGDTEYGPKFQGRVTMTRDTSINTAYMELSRLRSDDTAVYYCAVHNAHYGTWFAYWGQGTLVTVSS
VL: DVVMTQSPLSLPVTLGQPASISCRSSQSLLHSSGNTYLEWYQQRPGQSPRPLIYKISTRFSGVPDRFSGSGSGTDFTLKISRVEAEDVGVYYCFQGSHVPYTFGGGTKVEIK
modifications: Linking Assembly Unit Aa-MMAE conjugate
B10: hLIV22-Linking Assembly Unit Aa (8)-Comp. Aa (8)-MMAE (8) (conjugate, chains of the INN, looked up)
VH: QVQLVQSGAEVKKPGASVKVSCKASGLTIEDYYMHWVRQAPGQGLEWMGWIDPENGDTEYGPKFQGRVTMTRDTSINTAYMELSRLRSDDTAVYYCAVHNAHYGTWFAYWGQGTLVTVSS
VL: DVVMTQSPLSLPVTLGQPASISCRSSQSLLHSSGNTYLEWYQQRPGQSPRPLIYKISTRFSGVPDRFSGSGSGTDFTLKISRVEAEDVGVYYCFQGSHVPYTFGGGTKVEIK
modifications: Linking Assembly Unit Aa, Compound Aa, MMAE conjugate

What was measured:
CD30(−) U-266 cells = assay: Binding to CD30(−) cells; details: CD30(−) U-266 cells (not shown)
SU-DHL-16 = assay: In vitro cytotoxicity, SU-DHL-16; format: cell-based; details: co-administration IC50 vs co-conjugate IC50
Granta-519 = assay: In vitro cytotoxicity, Granta-519; format: cell-based; details: co-administration IC50 vs co-conjugate IC50
Raji = assay: In vitro cytotoxicity, Raji; format: cell-based; details: hBU12 conjugates targeting CD19
RL = assay: In vitro cytotoxicity, RL; format: cell-based; details: hBU12 conjugates targeting CD19
Nalm-6 = assay: In vitro cytotoxicity, Nalm-6; format: cell-based; details: hBU12 conjugates targeting CD19
WSU-DLCL2 = assay: In vitro cytotoxicity, WSU-DLCL2; format: cell-based; details: hBU12 conjugates targeting CD19
[1] = test system: MCF-7 breast carcinoma cells; assay: Colony forming assay, MCF-7; format: cell-based; details: ADC 100 ng/mL for 48 hours, recovery 7-9 days, N=2
Method: This analysis was conducted on either JHH-7 (hepatocarcinoma cells) or MCF-7 (LIV-1positive) cells using antigen specific dual-auristatin ADCs. […] A dual-auristatin ADC targeting the LIV-1antigen on MCF-7 cells also allowed for less outgrowth of resistant colonies compared to single-drug ADCs.
For testing of LIV-1 targeted ADCs, MCF-7 breast carcinoma cells (ATCC) were plated in 6-well tissue culture plates at a density of 10,000 cells per well. ADCs were added to cells at a concentration of 100 ng/mL for 48 hours. At this time, media was removed and cells were washed with PBS. Fresh media was added and the cells allowed to recover for 7-9 days. Cells were then washed with PBS, fixed with 3.7% paraformaldehyde, stained with 0.5% crystal violet, and then counted. Each condition was conducted with N=2.

Molecule	IC50 (Raji)	IC50 (RL)	IC50 (Nalm-6)	IC50 (WSU-DLCL2)	further results
cAC10: Chimeric anti-CD30 monoclonal antibody, naked antibody					binding to CD30(−) U-266 cells (CD30(−) U-266 cells): Neither cAC10 or cAC10-4-(3-1) bound
B1					Fold difference (SU-DHL-16): 2.5; Fold difference (Granta-519): 41.5
B2	1.6 ng/mL	1 ng/mL	2 ng/mL		
B3	6.9 ng/mL			8.6 ng/mL	
B4	2.1 ng/mL			1.5 ng/mL	
B5	97 ng/mL	60 ng/mL	9 ng/mL	7 ng/mL	
B6	5 ng/mL	2 ng/mL		2 ng/mL	
B7		4 ng/mL	8 ng/mL		
B8		340 ng/mL	5 ng/mL		
B9					Colony forming units [1]: 42.5
B10					Colony forming units [1]: 19.5

From patent publication US11541128B2, “Multi-drug antibody drug conjugates” (Seagen Inc., priority 2016, dated 2023)
